{
  "source": "paper PMC12154632",
  "key": {"[1]": {"biological_target": "paused elongation complex PEC-161 (E. coli RNAP stalled at C161 of the Bsu-GTR template) (E. coli)", "sequence (A1AGI6 whole entry, chain 1 of 4)": "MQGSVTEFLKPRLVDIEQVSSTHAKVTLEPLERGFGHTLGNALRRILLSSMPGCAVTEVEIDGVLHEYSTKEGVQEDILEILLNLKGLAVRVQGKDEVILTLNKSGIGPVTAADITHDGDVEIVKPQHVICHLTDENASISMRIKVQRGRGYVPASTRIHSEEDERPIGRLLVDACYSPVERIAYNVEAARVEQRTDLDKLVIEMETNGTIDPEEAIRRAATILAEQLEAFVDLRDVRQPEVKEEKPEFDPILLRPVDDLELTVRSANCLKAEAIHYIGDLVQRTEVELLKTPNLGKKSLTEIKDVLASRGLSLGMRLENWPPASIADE", "sequence (A1AIF9 whole entry, chain 2 of 4, further chain)": "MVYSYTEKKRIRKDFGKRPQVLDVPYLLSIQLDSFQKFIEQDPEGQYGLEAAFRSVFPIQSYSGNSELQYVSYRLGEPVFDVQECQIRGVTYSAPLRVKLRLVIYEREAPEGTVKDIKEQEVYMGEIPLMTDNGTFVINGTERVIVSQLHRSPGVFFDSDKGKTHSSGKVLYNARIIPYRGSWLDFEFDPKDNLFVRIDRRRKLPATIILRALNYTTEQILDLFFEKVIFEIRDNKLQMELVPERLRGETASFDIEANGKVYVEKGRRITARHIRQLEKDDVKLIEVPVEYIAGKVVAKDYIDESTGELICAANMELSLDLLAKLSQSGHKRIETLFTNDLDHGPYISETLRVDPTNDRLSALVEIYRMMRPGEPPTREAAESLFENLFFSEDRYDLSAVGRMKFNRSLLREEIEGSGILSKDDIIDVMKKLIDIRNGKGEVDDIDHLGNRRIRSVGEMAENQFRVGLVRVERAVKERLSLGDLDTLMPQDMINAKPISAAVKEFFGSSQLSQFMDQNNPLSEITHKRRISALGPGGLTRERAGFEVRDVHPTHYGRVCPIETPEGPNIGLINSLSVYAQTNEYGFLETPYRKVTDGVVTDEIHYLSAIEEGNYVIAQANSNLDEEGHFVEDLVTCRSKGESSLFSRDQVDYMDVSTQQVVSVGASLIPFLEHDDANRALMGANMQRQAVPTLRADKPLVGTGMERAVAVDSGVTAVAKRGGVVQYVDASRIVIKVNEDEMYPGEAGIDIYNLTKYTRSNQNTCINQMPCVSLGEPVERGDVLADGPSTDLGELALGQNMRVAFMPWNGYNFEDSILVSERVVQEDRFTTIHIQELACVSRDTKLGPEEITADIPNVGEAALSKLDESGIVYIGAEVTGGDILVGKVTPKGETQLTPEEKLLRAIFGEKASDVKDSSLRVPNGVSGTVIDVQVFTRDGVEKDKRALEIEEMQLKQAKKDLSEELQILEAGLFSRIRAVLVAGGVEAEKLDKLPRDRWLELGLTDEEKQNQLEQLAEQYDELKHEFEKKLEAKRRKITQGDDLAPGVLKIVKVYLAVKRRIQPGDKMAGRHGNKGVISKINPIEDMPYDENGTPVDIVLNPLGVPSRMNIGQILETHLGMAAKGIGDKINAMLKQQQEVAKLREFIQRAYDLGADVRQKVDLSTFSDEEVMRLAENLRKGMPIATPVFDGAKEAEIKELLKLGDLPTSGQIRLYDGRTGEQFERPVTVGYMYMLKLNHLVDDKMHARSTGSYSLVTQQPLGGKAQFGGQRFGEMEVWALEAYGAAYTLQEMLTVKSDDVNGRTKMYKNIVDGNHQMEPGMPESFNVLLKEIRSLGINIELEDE", "sequence (A7ZUK2 whole entry, chain 3 of 4, further chain)": "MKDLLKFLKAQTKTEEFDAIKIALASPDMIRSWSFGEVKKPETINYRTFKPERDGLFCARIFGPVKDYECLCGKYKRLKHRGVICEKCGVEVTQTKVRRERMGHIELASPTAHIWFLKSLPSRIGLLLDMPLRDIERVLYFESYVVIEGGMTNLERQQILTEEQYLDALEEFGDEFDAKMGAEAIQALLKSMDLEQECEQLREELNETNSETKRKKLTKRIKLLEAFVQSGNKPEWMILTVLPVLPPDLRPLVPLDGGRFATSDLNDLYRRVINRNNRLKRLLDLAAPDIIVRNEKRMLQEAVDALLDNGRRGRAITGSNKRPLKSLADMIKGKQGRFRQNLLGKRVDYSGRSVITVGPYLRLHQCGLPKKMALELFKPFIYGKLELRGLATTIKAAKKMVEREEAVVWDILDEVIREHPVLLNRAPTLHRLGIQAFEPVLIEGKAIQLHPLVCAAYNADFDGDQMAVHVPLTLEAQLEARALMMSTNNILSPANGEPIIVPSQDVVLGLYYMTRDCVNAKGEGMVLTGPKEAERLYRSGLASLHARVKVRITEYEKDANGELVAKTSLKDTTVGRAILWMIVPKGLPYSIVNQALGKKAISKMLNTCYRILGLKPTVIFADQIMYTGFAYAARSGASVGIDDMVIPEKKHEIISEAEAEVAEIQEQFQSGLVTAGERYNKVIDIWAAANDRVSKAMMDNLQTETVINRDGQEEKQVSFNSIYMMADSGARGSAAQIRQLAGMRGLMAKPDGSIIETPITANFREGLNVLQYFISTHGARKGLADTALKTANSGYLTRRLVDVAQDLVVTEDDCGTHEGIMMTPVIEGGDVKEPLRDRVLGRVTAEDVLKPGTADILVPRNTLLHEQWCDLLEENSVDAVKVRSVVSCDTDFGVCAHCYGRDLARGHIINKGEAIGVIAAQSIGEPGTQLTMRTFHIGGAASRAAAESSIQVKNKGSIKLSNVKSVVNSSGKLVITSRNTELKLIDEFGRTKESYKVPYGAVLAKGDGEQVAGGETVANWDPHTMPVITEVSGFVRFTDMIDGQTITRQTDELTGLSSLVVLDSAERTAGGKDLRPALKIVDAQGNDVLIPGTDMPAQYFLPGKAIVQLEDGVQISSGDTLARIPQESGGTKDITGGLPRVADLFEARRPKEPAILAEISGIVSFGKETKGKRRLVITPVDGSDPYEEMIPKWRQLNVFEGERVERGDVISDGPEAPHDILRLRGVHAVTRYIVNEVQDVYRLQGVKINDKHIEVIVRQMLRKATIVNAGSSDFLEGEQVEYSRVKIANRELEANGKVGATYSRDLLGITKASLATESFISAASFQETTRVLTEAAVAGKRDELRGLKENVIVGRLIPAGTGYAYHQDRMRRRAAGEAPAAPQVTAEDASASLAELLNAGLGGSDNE", "sequence (A1AHI0 2-91 limits assumed, chain 4 of 4, further chain)": "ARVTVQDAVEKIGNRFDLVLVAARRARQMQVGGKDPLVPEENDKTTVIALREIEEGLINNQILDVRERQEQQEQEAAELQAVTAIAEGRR", "experiment": "single-molecule fluorescence colocalisation"}, "[2]": {"biological_target": "paused elongation complex PEC-225 (E. coli RNAP stalled at U225 of the Bsu-GTR template) (E. coli)", "experiment": "single-molecule fluorescence colocalisation"}},
  "data": [
    {"substance": "NusA-Cy5 (from UniProt P0AFF6 1-495) (natural protein)", "values": [
      {"measurement": "koff", "setting": "[1]", "value": 0.81, "unit": "s⁻¹"},
      {"measurement": "kon", "setting": "[1]", "value": "1.12e+07", "unit": "M⁻¹ s⁻¹"},
      {"measurement": "kon, fast (fraction 45%)", "setting": "[1]", "value": "2.34e+07", "unit": "M⁻¹ s⁻¹"},
      {"measurement": "kon, slow (fraction 55%)", "setting": "[1]", "value": "2.29e+06", "unit": "M⁻¹ s⁻¹"},
      {"measurement": "koff", "setting": "[2]", "value": 0.47, "unit": "s⁻¹"},
      {"measurement": "kon", "setting": "[2]", "value": "4.16e+06", "unit": "M⁻¹ s⁻¹"},
      {"measurement": "kon, fast (fraction 50%)", "setting": "[2]", "value": "7.26e+06", "unit": "M⁻¹ s⁻¹"},
      {"measurement": "kon, slow (fraction 50%)", "setting": "[2]", "value": "1.38e+06", "unit": "M⁻¹ s⁻¹"}
    ]}
  ]
}
